Experimental data published in PMC3557595 (Journal of molecular biology, 2012).

Experiments:
[1] = biological target: Hs H3.1(1-136)(S88Q/G103H)-His6/H4(1-103) (human, UniProt P68431 1-136; P62805 1-103, S88Q | G103H); assay: pull-down
[2] = biological target: GS-CENP-A(60-140)-LVPR and H4^Hs(1-103) (human, UniProt P49450 60-140; P62805 1-103); assay: SEC
[3] = biological target: GS-CENP-A^Hs(60-140)-LVPR and GS-H4^Hs(22-103) (human, UniProt P49450 60-140; P62805 22-103); assay: SEC

binding result [1]: binds | binding result [2]: binds | binding result [3]: binds
B1: Hs GS-HJURP(2-81) (domain or fragment)
chain: GSLGTLRAMEGEDVEDDQLLQKLRASRRRFQRRMQRLIEKYNQPFEDTPVVQMATLTYETPQGLRIWGGRLIKERNEGEIQD
